Reference: publication PMC10367427 (Frontiers in Immunology, 2023)

Target: T1, SARS-CoV-2 full-length nucleocapsid protein (NP) (SARS-CoV-2, reference (Wuhan-Hu-1; Gene …, UniProt P0DTC9)
T1 construct: also called full-length NP
Assay: ELISA
Settings: both partners purified

B1: NbON10-NanoLuc fusion protein (VHH)
VHH: QVQLVQSGGGLVQPGGSLRLSCAASGLRLGYYTIAWFRQAPGKEREGISCISRSDGSTYYADSVKGRFTISTDNAENTVYLQMNSLKPEDTAVYYCAADFVPASHCAVANTRGYDYWGQGTQVTVSS
binding result: binds
